# In patent publication US6500674:
# Tests used:
# [1] = target: phosphorylated tau prepared by incubating recombinant non-phosphorylated tau with a rat brain extract (UniProt P10636); assay: sandwich ELISA on CSF spiked with phosphorylated and non-phosphorylated tau, no amplification
# [2] = target: phosphorylated tau prepared by incubating recombinant non-phosphorylated tau with a rat brain extract (UniProt P10636); assay: sandwich ELISA, antibody coated, CSF spiked with tau, detection with biotinylated AT120 and HT7
# [3] = target: recombinant non-phosphorylated tau (UniProt P10636); assay: as above
# [4] = target: phosphorylated tau prepared by incubating recombinant non-phosphorylated tau with a rat brain extract (UniProt P10636); assay: sandwich ELISA, antibody coated, CSF without added tau (background), detection with biotinylated AT120 and HT7
# [5] = target: recombinant non-phosphorylated tau (UniProt P10636); assay: as above
detection limit in ELISA [1],ELISA signal at 0.2 pg/ml tau [2],ELISA signal at 1 pg/ml tau [2],ELISA signal at 5 pg/ml tau [2],ELISA signal at 25 pg/ml tau [2],ELISA signal at 100 pg/ml tau [2],ELISA signal at 500 pg/ml tau [2],ELISA signal at 2000 pg/ml tau [2],ELISA signal at 0.2 pg/ml tau [3],ELISA signal at 1 pg/ml tau [3],ELISA signal at 5 pg/ml tau [3],ELISA signal at 25 pg/ml tau [3],ELISA signal at 100 pg/ml tau [3],ELISA signal at 500 pg/ml tau [3],ELISA signal at 2000 pg/ml tau [3],ELISA signal at 0 pg/ml tau (blank) [4],ELISA signal at 0 pg/ml tau (blank) [5],Substance
10 pg/mL,89,83,86,113,158,1040,2650,91,90,87,92,96,94,98,94,92,"monoclonal antibody AT270 secreted by the hybridoma deposited at ECACC on Jul. 7, 1993 under No. 93070774"
10 pg/mL,95,97,106,105,125,179,449,85,87,90,85,94,92,95,94,89,"monoclonal antibody AT180 secreted by the hybridoma deposited at ECACC on Dec. 22, 1992 under No. 92122204"
